Assay results reported in patent US12697350B2, “Methods and compositions for treating a premature termination codon-mediated disorder” (Tevard Biosciences, Inc., priority 2019, dated 2026).

Experiments:
EGFP-R96X-TGA = experiment: Readthrough of suppressor tRNA delivered by AAV-PHP.eB, EGFP-R96X-TGA, 293 cells pre-transfected with LY6A (FIG. 41); format: cell-based, human
From the text: FIG. 40 is a schematic representation of constructs that were packaged into AAV-PHP.eB capsids. Construct 262 contains wild-type EGFP driven by an EF1a promoter. Construct 269 contains EGFP-R96X-TGA driven by an EF1a promoter (SEQ ID NO: 177) and two copies of the ArgTCA suppressor tRNA #115 (SEQ ID NO: 18) (“TCA-115”) in the context of 55 bps upstream flanking genomic DNA from tRNA-Tyr-GTA-5-1 (SEQ ID NO: 900). Both constructs contain 5′ and 3′ ITR sequences from AAV2, which provide cis-acting elements for AAV replication and packaging.
FIG. 41 depicts readthrough activity of suppressor tRNAs delivered by AAV. AAV-PHP.eB containing the constructs shown in FIG. 40 was produced by Vigene Biosciences. 48 hours prior to AAV transduction, 293 cells were pre-transfected with an expression construct containing the LY6A gene, which is required for robust transduction by AAV-PHP.eB. Cells were transduced at an MOI of 1E5 vg/cell. Where indicated, cells were also transfected with an expression construct containing the EGFP-R96X-TGA reporter (SEQ ID NO: 31) and an expression construct containing the ArgTCA suppressor tRNA #115 (SEQ ID NO: 18). At 72 hours post transduction, the EGFP signal was quantified by immunofluorescence. Live cell images were captured on an EVOS FL Auto 2 imaging system. […]

Neuro-2a cells = format: cell-based, mouse
Description: FIG. 23 is a graph depicting cell viability from FIG. 22 as measured by flow cytometry at ~48 hours post transfection. Neuro-2a cells were transfected with an expression construct containing the EGFP-R96X-TGA reporter (“GFP-PTC”) and either (i) transfected with an expression construct including the ArgTCA suppressor tRNA #115 (SEQ ID NO: 18) at the indicated copy number on the same construct, or (ii) treated with ataluren at the indicated concentration, (iii) treated with gentamicin at the indication concentration, or (iv) treated with G418 at the indicated concentration. For all experimental conditions, cell culture medium was replaced with fresh medium ~6 hour after transfection and the indicated drugs at the indicated concentrations were added at this point. A reporter containing wildtype GFP without a PTC (“WT-GFP”) was used as a control. “Mock” indicates mock transfected cells. “4×TCG” indicates cells transfected with an expression construct that contains four copies of a wild-type Arg-tRNA with a TCG anticodon and the EGFP-R96X-TGA reporter. Cell viability was assessed by flow cytometry using 7-Amino Actinomycin D (7-AAD), a membrane impermeant dye that is generally excluded from viable cells.
FIG. 34 is a graph depicting cell viability from FIG. 33 as measured by flow cytometry at ~48 hours post transfection. […] Cell viability was assessed by flow cytometry using 7-Amino Actinomycin D (7-AAD), a membrane impermeant dye that is generally excluded from viable cells.
FIG. 36 is a graph depicting cell viability from FIG. 35 as measured by flow cytometry at ~48 hours post transfection. […] Cell viability was assessed by flow cytometry using 7-Amino Actinomycin D (7-AAD), a membrane impermeant dye that is generally excluded from viable cells. […]

B1: tRNA-Arg-TCT-2-1-TCA-SUP_no intron (nucleic acid)
chain: GGCTCCGTGGCGCAATGGATAGCGCATTGGACTTCAAATTCAAAGGTTCCGGGTTCGAGTCCCGGCGGAGTCG
modifications: chemistry not fully specified
- readthrough activity, AAV delivery versus transient transfection (EGFP-R96X-TGA; 293 cells pre-transfected with LY6A): comparable readthrough activity when delivered by AAV or transient transfection
- PTC readthrough based on GFP intensity (EGFP-R96X-TGA; AAV-PHP.eB with construct 269 (two copies of #115), MOI 1E5 vg/cell, 72 hours post transduction, normalized to construct 262 (wild-type EGFP)): ~ 13.2%
- cell viability (Neuro-2a cells): not accompanied by a decrease in cell viability
